{"source": "patent US20080241109A1", "biological_target": "Fas receptor (human) (UniProt P25445)", "sequence (P25445 26-335)": "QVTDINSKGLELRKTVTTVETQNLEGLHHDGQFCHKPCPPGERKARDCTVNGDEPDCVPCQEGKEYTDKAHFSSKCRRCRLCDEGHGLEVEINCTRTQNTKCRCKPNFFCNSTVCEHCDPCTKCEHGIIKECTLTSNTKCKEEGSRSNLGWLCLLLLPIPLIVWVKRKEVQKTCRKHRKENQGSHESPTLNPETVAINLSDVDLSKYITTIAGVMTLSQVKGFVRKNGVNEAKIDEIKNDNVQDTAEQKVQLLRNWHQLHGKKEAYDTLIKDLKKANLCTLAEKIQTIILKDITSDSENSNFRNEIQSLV", "test": "cell-based or functional assay", "data": [{"substance": "CH11 (antibody)", "values": [{"measurement": "IC50 (ng/ml), PESMTS survival assay, ARH-77 cells (multiple myeloma)", "value": "> 10000", "unit": "ng/mL"}, {"measurement": "IC50 (ng/ml), PESMTS survival assay, DOHH2 cells (follicular lymphoma)", "value": "> 10000", "unit": "ng/mL"}, {"measurement": "IC50 (ng/ml), PESMTS survival assay, HL60 (AML-M3) cells", "value": "> 10000", "unit": "ng/mL"}, {"measurement": "IC50 (ng/ml), PESMTS survival assay, Jurkat cells (acute T lymphoblastic leukemia)", "value": 6.58, "unit": "ng/mL"}, {"measurement": "IC50 (ng/ml), PESMTS survival assay, K562 cells (chronic myeloid leukaemia)", "value": "> 10000", "unit": "ng/mL"}, {"measurement": "IC50 (ng/ml), PESMTS survival assay, NB4 (AML-M3) cells", "value": "> 10000", "unit": "ng/mL"}, {"measurement": "IC50 (ng/ml), PESMTS survival assay, Namalwa (ALL-L3) cells", "value": "> 10000", "unit": "ng/mL"}, {"measurement": "IC50 (ng/ml), PESMTS survival assay, RPMI-8226 cells (multiple myeloma)", "value": "> 10000", "unit": "ng/mL"}, {"measurement": "IC50 (ng/ml), PESMTS survival assay, Raji (ALL-L3) cells", "value": 15.8, "unit": "ng/mL"}, {"measurement": "IC50 (ng/ml), PESMTS survival assay, SC-I cells (follicular lymphoma)", "value": "> 10000", "unit": "ng/mL"}, {"measurement": "IC50 (ng/ml), PESMTS survival assay, U266 cells (multiple myeloma)", "value": "> 10000", "unit": "ng/mL"}]}, {"substance": "MegaFasL (fusion polypeptide m or hACRP30:hFasL) (from UniProt P48023 103-281) (ligand)", "values": [{"measurement": "IC50 (ng/ml), PESMTS survival assay, ARH-77 cells (multiple myeloma)", "value": 10.4, "unit": "ng/mL"}, {"measurement": "IC50 (ng/ml), PESMTS survival assay, DOHH2 cells (follicular lymphoma)", "value": 1.17, "unit": "ng/mL"}, {"measurement": "IC50 (ng/ml), PESMTS survival assay, HL60 (AML-M3) cells", "value": 213, "unit": "ng/mL"}, {"measurement": "IC50 (ng/ml), PESMTS survival assay, Jurkat cells (acute T lymphoblastic leukemia)", "value": 0.06, "unit": "ng/mL"}, {"measurement": "IC50 (ng/ml), PESMTS survival assay, K562 cells (chronic myeloid leukaemia)", "value": "> 10000", "unit": "ng/mL"}, {"measurement": "IC50 (ng/ml), PESMTS survival assay, NB4 (AML-M3) cells", "value": 16, "unit": "ng/mL"}, {"measurement": "IC50 (ng/ml), PESMTS survival assay, Namalwa (ALL-L3) cells", "value": 57, "unit": "ng/mL"}, {"measurement": "IC50 (ng/ml), PESMTS survival assay, OPM2 cells (multiple myeloma)", "value": 2.19, "unit": "ng/mL"}, {"measurement": "IC50 (ng/ml), PESMTS survival assay, RPMI-8226 cells (multiple myeloma)", "value": 3.57, "unit": "ng/mL"}, {"measurement": "IC50 (ng/ml), PESMTS survival assay, Raji (ALL-L3) cells", "value": 5.6, "unit": "ng/mL"}, {"measurement": "IC50 (ng/ml), PESMTS survival assay, SC-I cells (follicular lymphoma)", "value": "> 10000", "unit": "ng/mL"}, {"measurement": "IC50 (ng/ml), PESMTS survival assay, U266 cells (multiple myeloma)", "value": 6.2, "unit": "ng/mL"}]}]}
